Consider seven molecules from patent publication US20190338009A1 (ZEALAND PHARMA A S, published 2019).

Square brackets hold non-standard residues; d marks the D form. Aib = CC(C)(N)C(=O)O

T1: human GLP-2 receptor (hGLP2-R) (human, UniProt O95838 1-553)
T1 sequence (looked up): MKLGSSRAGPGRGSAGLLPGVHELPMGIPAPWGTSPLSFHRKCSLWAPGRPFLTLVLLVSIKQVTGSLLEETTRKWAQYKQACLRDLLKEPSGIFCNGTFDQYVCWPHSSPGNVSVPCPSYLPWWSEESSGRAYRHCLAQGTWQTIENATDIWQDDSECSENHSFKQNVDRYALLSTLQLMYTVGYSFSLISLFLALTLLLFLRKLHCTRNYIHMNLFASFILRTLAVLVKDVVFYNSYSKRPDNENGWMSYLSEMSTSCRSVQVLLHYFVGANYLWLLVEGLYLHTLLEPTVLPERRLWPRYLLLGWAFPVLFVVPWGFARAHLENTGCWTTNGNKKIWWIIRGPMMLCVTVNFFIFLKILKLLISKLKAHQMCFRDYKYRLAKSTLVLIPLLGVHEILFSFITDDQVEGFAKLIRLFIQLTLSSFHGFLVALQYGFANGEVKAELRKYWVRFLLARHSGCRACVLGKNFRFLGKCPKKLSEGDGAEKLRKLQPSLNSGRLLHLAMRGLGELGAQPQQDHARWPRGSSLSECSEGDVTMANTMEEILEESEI

B1: Compound 1 (peptide)
peptide: H-H[Aib]EGSFTSELATILDEQAARDFIAWLIAHKITD-OH
SMILES: CC[C@H](C)[C@H](NC(=O)[C@H](CC(C)C)NC(=O)[C@H](Cc1c[nH]c2ccccc12)NC(=O)[C@H](C)NC(=O)[C@@H](NC(=O)[C@H](Cc1ccccc1)NC(=O)[C@H](CC(=O)O)NC(=O)[C@H](CCCNC(=N)N)NC(=O)[C@H](C)NC(=O)[C@H](C)NC(=O)[C@H](CCC(N)=O)NC(=O)[C@H](CCC(=O)O)NC(=O)[C@H](CC(=O)O)NC(=O)[C@H](CC(C)C)NC(=O)[C@@H](NC(=O)[C@@H](NC(=O)[C@H](C)NC(=O)[C@H](CC(C)C)NC(=O)[C@H](CCC(=O)O)NC(=O)[C@H](CO)NC(=O)[C@@H](NC(=O)[C@H](Cc1ccccc1)NC(=O)[C@H](CO)NC(=O)CNC(=O)[C@H](CCC(=O)O)NC(=O)C(C)(C)NC(=O)[C@@H](N)Cc1c[nH]cn1)[C@@H](C)O)[C@@H](C)O)[C@@H](C)CC)[C@@H](C)CC)C(=O)N[C@@H](C)C(=O)N[C@@H](Cc1c[nH]cn1)C(=O)N[C@@H](CCCCN)C(=O)N[C@H](C(=O)N[C@H](C(=O)N[C@@H](CC(=O)O)C(=O)O)[C@@H](C)O)[C@@H](C)CC
B2: Compound 23 (peptide)
peptide: H-H[Aib]EGSFTSELATILDEQAARDFIAWLYEHKITD-OH
SMILES: CC[C@H](C)[C@H](NC(=O)[C@H](Cc1ccccc1)NC(=O)[C@H](CC(=O)O)NC(=O)[C@H](CCCNC(=N)N)NC(=O)[C@H](C)NC(=O)[C@H](C)NC(=O)[C@H](CCC(N)=O)NC(=O)[C@H](CCC(=O)O)NC(=O)[C@H](CC(=O)O)NC(=O)[C@H](CC(C)C)NC(=O)[C@@H](NC(=O)[C@@H](NC(=O)[C@H](C)NC(=O)[C@H](CC(C)C)NC(=O)[C@H](CCC(=O)O)NC(=O)[C@H](CO)NC(=O)[C@@H](NC(=O)[C@H](Cc1ccccc1)NC(=O)[C@H](CO)NC(=O)CNC(=O)[C@H](CCC(=O)O)NC(=O)C(C)(C)NC(=O)[C@@H](N)Cc1c[nH]cn1)[C@@H](C)O)[C@@H](C)O)[C@@H](C)CC)C(=O)N[C@@H](C)C(=O)N[C@@H](Cc1c[nH]c2ccccc12)C(=O)N[C@@H](CC(C)C)C(=O)N[C@@H](Cc1ccc(O)cc1)C(=O)N[C@@H](CCC(=O)O)C(=O)N[C@@H](Cc1c[nH]cn1)C(=O)N[C@@H](CCCCN)C(=O)N[C@H](C(=O)N[C@H](C(=O)N[C@@H](CC(=O)O)C(=O)O)[C@@H](C)O)[C@@H](C)CC
B3: Compound 24 (peptide)
peptide: H-H[Aib]EGSFTSELATILDEQAARDFIAWLQAHKITD-OH
SMILES: CC[C@H](C)[C@H](NC(=O)[C@H](Cc1ccccc1)NC(=O)[C@H](CC(=O)O)NC(=O)[C@H](CCCNC(=N)N)NC(=O)[C@H](C)NC(=O)[C@H](C)NC(=O)[C@H](CCC(N)=O)NC(=O)[C@H](CCC(=O)O)NC(=O)[C@H](CC(=O)O)NC(=O)[C@H](CC(C)C)NC(=O)[C@@H](NC(=O)[C@@H](NC(=O)[C@H](C)NC(=O)[C@H](CC(C)C)NC(=O)[C@H](CCC(=O)O)NC(=O)[C@H](CO)NC(=O)[C@@H](NC(=O)[C@H](Cc1ccccc1)NC(=O)[C@H](CO)NC(=O)CNC(=O)[C@H](CCC(=O)O)NC(=O)C(C)(C)NC(=O)[C@@H](N)Cc1c[nH]cn1)[C@@H](C)O)[C@@H](C)O)[C@@H](C)CC)C(=O)N[C@@H](C)C(=O)N[C@@H](Cc1c[nH]c2ccccc12)C(=O)N[C@@H](CC(C)C)C(=O)N[C@@H](CCC(N)=O)C(=O)N[C@@H](C)C(=O)N[C@@H](Cc1c[nH]cn1)C(=O)N[C@@H](CCCCN)C(=O)N[C@H](C(=O)N[C@H](C(=O)N[C@@H](CC(=O)O)C(=O)O)[C@@H](C)O)[C@@H](C)CC
B4: Compound 20 (peptide)
peptide: H-H[Aib]EGTFTSELATILDEQAARDFIAWLIAYKITD-OH
SMILES: CC[C@H](C)[C@H](NC(=O)[C@H](CC(C)C)NC(=O)[C@H](Cc1c[nH]c2ccccc12)NC(=O)[C@H](C)NC(=O)[C@@H](NC(=O)[C@H](Cc1ccccc1)NC(=O)[C@H](CC(=O)O)NC(=O)[C@H](CCCNC(=N)N)NC(=O)[C@H](C)NC(=O)[C@H](C)NC(=O)[C@H](CCC(N)=O)NC(=O)[C@H](CCC(=O)O)NC(=O)[C@H](CC(=O)O)NC(=O)[C@H](CC(C)C)NC(=O)[C@@H](NC(=O)[C@@H](NC(=O)[C@H](C)NC(=O)[C@H](CC(C)C)NC(=O)[C@H](CCC(=O)O)NC(=O)[C@H](CO)NC(=O)[C@@H](NC(=O)[C@H](Cc1ccccc1)NC(=O)[C@@H](NC(=O)CNC(=O)[C@H](CCC(=O)O)NC(=O)C(C)(C)NC(=O)[C@@H](N)Cc1c[nH]cn1)[C@@H](C)O)[C@@H](C)O)[C@@H](C)O)[C@@H](C)CC)[C@@H](C)CC)C(=O)N[C@@H](C)C(=O)N[C@@H](Cc1ccc(O)cc1)C(=O)N[C@@H](CCCCN)C(=O)N[C@H](C(=O)N[C@H](C(=O)N[C@@H](CC(=O)O)C(=O)O)[C@@H](C)O)[C@@H](C)CC
B5: Compound 22 (peptide)
peptide: H-H[Aib]EGSFTSELATILDEQAARDFIAWLHAHKITD-OH
SMILES: CC[C@H](C)[C@H](NC(=O)[C@H](Cc1ccccc1)NC(=O)[C@H](CC(=O)O)NC(=O)[C@H](CCCNC(=N)N)NC(=O)[C@H](C)NC(=O)[C@H](C)NC(=O)[C@H](CCC(N)=O)NC(=O)[C@H](CCC(=O)O)NC(=O)[C@H](CC(=O)O)NC(=O)[C@H](CC(C)C)NC(=O)[C@@H](NC(=O)[C@@H](NC(=O)[C@H](C)NC(=O)[C@H](CC(C)C)NC(=O)[C@H](CCC(=O)O)NC(=O)[C@H](CO)NC(=O)[C@@H](NC(=O)[C@H](Cc1ccccc1)NC(=O)[C@H](CO)NC(=O)CNC(=O)[C@H](CCC(=O)O)NC(=O)C(C)(C)NC(=O)[C@@H](N)Cc1c[nH]cn1)[C@@H](C)O)[C@@H](C)O)[C@@H](C)CC)C(=O)N[C@@H](C)C(=O)N[C@@H](Cc1c[nH]c2ccccc12)C(=O)N[C@@H](CC(C)C)C(=O)N[C@@H](Cc1c[nH]cn1)C(=O)N[C@@H](C)C(=O)N[C@@H](Cc1c[nH]cn1)C(=O)N[C@@H](CCCCN)C(=O)N[C@H](C(=O)N[C@H](C(=O)N[C@@H](CC(=O)O)C(=O)O)[C@@H](C)O)[C@@H](C)CC
B6: Compound 25 (peptide)
peptide: H-H[Aib]EGSFTSELATILDEQAARDFIAWLIAQKITD-OH
SMILES: CC[C@H](C)[C@H](NC(=O)[C@H](CC(C)C)NC(=O)[C@H](Cc1c[nH]c2ccccc12)NC(=O)[C@H](C)NC(=O)[C@@H](NC(=O)[C@H](Cc1ccccc1)NC(=O)[C@H](CC(=O)O)NC(=O)[C@H](CCCNC(=N)N)NC(=O)[C@H](C)NC(=O)[C@H](C)NC(=O)[C@H](CCC(N)=O)NC(=O)[C@H](CCC(=O)O)NC(=O)[C@H](CC(=O)O)NC(=O)[C@H](CC(C)C)NC(=O)[C@@H](NC(=O)[C@@H](NC(=O)[C@H](C)NC(=O)[C@H](CC(C)C)NC(=O)[C@H](CCC(=O)O)NC(=O)[C@H](CO)NC(=O)[C@@H](NC(=O)[C@H](Cc1ccccc1)NC(=O)[C@H](CO)NC(=O)CNC(=O)[C@H](CCC(=O)O)NC(=O)C(C)(C)NC(=O)[C@@H](N)Cc1c[nH]cn1)[C@@H](C)O)[C@@H](C)O)[C@@H](C)CC)[C@@H](C)CC)C(=O)N[C@@H](C)C(=O)N[C@@H](CCC(N)=O)C(=O)N[C@@H](CCCCN)C(=O)N[C@H](C(=O)N[C@H](C(=O)N[C@@H](CC(=O)O)C(=O)O)[C@@H](C)O)[C@@H](C)CC
B7: Compound 21 (peptide)
peptide: H-H[Aib]EGTFTSELATILDEQAARDFIAWLHQHKITD-OH
SMILES: CC[C@H](C)[C@H](NC(=O)[C@H](Cc1ccccc1)NC(=O)[C@H](CC(=O)O)NC(=O)[C@H](CCCNC(=N)N)NC(=O)[C@H](C)NC(=O)[C@H](C)NC(=O)[C@H](CCC(N)=O)NC(=O)[C@H](CCC(=O)O)NC(=O)[C@H](CC(=O)O)NC(=O)[C@H](CC(C)C)NC(=O)[C@@H](NC(=O)[C@@H](NC(=O)[C@H](C)NC(=O)[C@H](CC(C)C)NC(=O)[C@H](CCC(=O)O)NC(=O)[C@H](CO)NC(=O)[C@@H](NC(=O)[C@H](Cc1ccccc1)NC(=O)[C@@H](NC(=O)CNC(=O)[C@H](CCC(=O)O)NC(=O)C(C)(C)NC(=O)[C@@H](N)Cc1c[nH]cn1)[C@@H](C)O)[C@@H](C)O)[C@@H](C)O)[C@@H](C)CC)C(=O)N[C@@H](C)C(=O)N[C@@H](Cc1c[nH]c2ccccc12)C(=O)N[C@@H](CC(C)C)C(=O)N[C@@H](Cc1c[nH]cn1)C(=O)N[C@@H](CCC(N)=O)C(=O)N[C@@H](Cc1c[nH]cn1)C(=O)N[C@@H](CCCCN)C(=O)N[C@H](C(=O)N[C@H](C(=O)N[C@@H](CC(=O)O)C(=O)O)[C@@H](C)O)[C@@H](C)CC

The target of one assay is human glucagon-like peptide 1 receptor (GLP-1R) (human, UniProt P43220 24-463). The assay can be described thus: cell-based or functional assay.
Take B1: the “EC50 GLP-1 (nM); cAMP AlphaScreen, HEK293 cells expressing human GLP-1R” value (shortened to “EC50 GLP-1 (nM); cAMP AlphaScreen”) was 0.014 nM.

As for B2, the “EC50 GLP-1 (nM); cAMP AlphaScreen” value was 0.12 nM.

B3: the “EC50 GLP-1 (nM); cAMP AlphaScreen” value stood at 0.042 nM.

Take B4: the “EC50 GLP-1 (nM); cAMP AlphaScreen” value turned out to be 0.012 nM.

In the case of B5, the “EC50 GLP-1 (nM); cAMP AlphaScreen” value was 0.28 nM.

In the case of B6, the “EC50 GLP-1 (nM); cAMP AlphaScreen” value was found to be 0.008 nM.

In the case of B7, the “EC50 GLP-1 (nM); cAMP AlphaScreen” value was 0.049 nM.

The next assay has as its target T1, human GLP-2 receptor (hGLP2-R). Kind of assay: cell-based or functional assay.
For the molecule B1, the “EC50 GLP-2 (nM); cAMP AlphaScreen, HEK293 cells expressing human GLP-2R” value (shortened to “EC50 GLP-2 (nM); cAMP AlphaScreen”) is 0.036 nM.

On to B2, for which the “EC50 GLP-2 (nM); cAMP AlphaScreen” value was found to be 0.034 nM.

Regarding B3, the “EC50 GLP-2 (nM); cAMP AlphaScreen” value came to 0.049 nM.

As for B4, the “EC50 GLP-2 (nM); cAMP AlphaScreen” value came to 0.26 nM.

Consider B5, for which the “EC50 GLP-2 (nM); cAMP AlphaScreen” value is 0.042 nM.

Turning to B6, the “EC50 GLP-2 (nM); cAMP AlphaScreen” value was determined as 0.062 nM.

B7: the “EC50 GLP-2 (nM); cAMP AlphaScreen” value came to 0.11 nM.
